Data on two molecules can be found in article PMC8693978.

The target in assay [1] is EGFP-ARHGAP4 Rho-GAP deletion mutant (human). Briefly: co-IP.
The target of assay [2] is EGFP-ARHGAP4 SH3 deletion mutant (human). Briefly: co-IP.

B1: SEPT9 (natural protein)
chain: MKKSYSGGTRTSSGRLRRLGDSSGPALKRSFEVEEVETPNSTPPRRVQTPLLRATVASSTQKFQDLGVKNSEPSARHVDSLSQRSPKASLRRVELSGPKAAEPVSRRTELSIDISSKQVENAGAIGPSRFGLKRAEVLGHKTPEPAPRRTEITIVKPQESAHRRMEPPASKVPEVPTAPATDAAPKRVEIQMPKPAEAPTAPSPAQTLENSEPAPVSQLQSRLEPKPQPPVAEATPRSQEATEAAPSCVGDMADTPRDAGLKQAPASRNEKAPVDFGYVGIDSILEQMRRKAMKQGFEFNIMVVGQSGLGKSTLINTLFKSKISRKSVQPTSEERIPKTIEIKSITHDIEEKGVRMKLTVIDTPGFGDHINNENCWQPIMKFINDQYEKYLQEEVNINRKKRIPDTRVHCCLYFIPATGHSLRPLDIEFMKRLSKVVNIVPVIAKADTLTLEERVHFKQRITADLLSNGIDVYPQKEFDEDSEDRLVNEKFREMIPFAVVGSDHEYQVNGKRILGRKTKWGTIEVENTTHCEFAYLRDLLIRTHMQNIKDITSSIHFEAYRVKRLNEGSSAMANGMEEKEPEAPEM
On to B1, for which the percent of the co-precipitation by full-length ARHGAP4 turned out to be 55% in assay [1] and 65% in assay [2].

B2: SEPT2 (natural protein)
chain: MSKQQPTQFINPETPGYVGFANLPNQVHRKSVKKGFEFTLMVVGESGLGKSTLINSLFLTDLYPERVIPGAAEKIERTVQIEASTVEIEERGVKLRLTVVDTPGYGDAINCRDCFKTIISYIDEQFERYLHDESGLNRRHIIDNRVHCCFYFISPFGHGLKPLDVAFMKAIHNKVNIVPVIAKADTLTLKERERLKKRILDEIEEHNIKIYHLPDAESDEDEDFKEQTRLLKASIPFSVVGSNQLIEAKGKKVRGRLYPWGVVEVENPEHNDFLKLRTMLITHMQDLQEVTQDLHYENFRSERLKRGGRKVENEDMNKDQILLEKEAELRRMQEMIARMQAQMQMQMQGGDGDGGALGHHV
B2: the results for the percent of the co-precipitation by full-length ARHGAP4 in assay [1] and in assay [2] were 55% and 65%, respectively.
